Reference: the nanobody polyreactivity screen of Harvey et al. (2022)

Experiment: yeast display, Sf9 membrane polyspecificity reagent, FACS + sequencing; frameworks hold sequencing errors
Method in brief: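 After 36–48 hours of galactose induction, yeast (Saccharomyces cerevisiae BJ5465) displaying a synthetic nanobody library were stained at 4 °C for 1 hour with 10% biotinylated, detergent-solubilized Sf9 membrane reagent. Streptavidin microbeads enriched the stained cells before FACS sorting into low and high (top ~1%) gates on anti-HA and streptavidin fluorescence. Each clone's polyreactivity label reflects its gate of origin.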

Sequence | polyreactivity (PSR sort gate)
QVQLVESGGGLVQAGGSLRLSCAASGRIFDTYAMGWYRQAPGKERELVAAITRRGGSTYYADSVKGRFTISRDNAKNTVYLQMNSLKPEDTAVYYCAKSLVNRHYDYWGQGTQVTVSS | low polyreactivity
QVQLVESGGGLVQAGGSLRLSCAASGFIYHNAMGWYRQAPGKERELVARITWSGGSTSYADSVKGRFTISRDNAKNTVYLQMTSLKPEETAVYYCAARGVVYRYGASRGYWGQGTQVTVSS | high polyreactivity
QVQLVESGGGLVQAGGSLRLSCAASGRTFVIYAMGWYRQAPGKQRELVAAISKSGGRTYYADSVKGRFTISRDNAKNSVYLQMNSLKPEDTAVYYCNKVLSVSQAGGFDYWGQGTQVTVSS | high polyreactivity
QVQLVESGGGLVQAGGSLRLSCAASGSIFQGYSMGWYRQAPGKERELVAAITASGGSTYYADSVKGRFTISRDNAKNTVSLKMNSLKPEDTAVYYCATDSYWRHDLYRYEYWGQGSQVTVSS | high polyreactivity
QVQLVESGGGLVQAGGSLRLICAGSGSNFSYYAMGWYRQAPGKERELVAAITWSGGTTSYADSVKGRFTISRDNAKNTVYLQMNSLKPEDSAVNYFARSIYVVSAQYDYWGQGTQVTVSS | low polyreactivity
QVQLVASGGGLVHAGGSLRLSCAASGGTFWDYAMGWSRQAPGKERELVAVISDSGGTYYADSVKGRFTISRDNAKNTVYLQMNSLKPEDTAVYYCAAGSLTLSTSTVWFAYDYWGQGTQVTVSS | high polyreactivity
QVQLVESGGGLVQAGGSLSLSCAASGSIVAYNAMGWYRQAPGKERELVAAITDSGGSTFYADSVKGRFTISRDNAKNTVYLQMNSLKPEDTAVYYCATSGDRLVWGQGTQVTVSS | low polyreactivity
QVQLVESGGGLVQAGGSLRLSCAASGFIFRNYVMGWYRQAPGKERELVAAINWSTGTTNYADSVKGGFTISRDNAKNTVYLQMNSLKPEDTAVYYCNARYRLRYIYSLRYDYWGQGTQVTVSS | high polyreactivity
QVQLVESGGGLVQAGGSLRLSCASSGSTFYSYVMGWYRQAPGKERELVAAITYSGGRTYYADSVKGRFTISRDNEKNTVYFQMYSLKPEDTAVYYCAKRVFNYQRYDYWGQGTQVTVSS | high polyreactivity
QVQRVESGGGLVQAGGSLRLSCAASGLTFPSYAMGWYRQAPGKERELVATISNGSSTYYADSVKGRFTISRDNAKNTVYLQLNSLKPEDTAVYYCAKDYYYSRNPLYGHDYWGQGSQVTVSS | low polyreactivity
QLQLVESGGGLVQAGGSLRLSCAASGLTFYHYAMGWYRQAPGKERELVAAISTSGGSTYYADSVKGRFTVSRDNAKNTVYLQMNSLKPEDTAVYYCATERTYRYDFWGQGTQVTVSS | high polyreactivity
QVQLVESGGGLVQAGGSLRLSCAASGSIFYGNTMGWYRQEPGKERELVAPIRSVGRTYYADSVKGRYTISRDNAKNTVYLQMYSLKPEDTAVYYCAADPRSYFTSEYWGQGTQVTVSS | high polyreactivity
QVQLVESGGGLVQAGGSLRLSCAASGPTFYEYAMGWYRQAPGKERELVARITRGGSTYYADSVKGRFTISRDNAKNTVYLQMNSLKPEDTAVYYCAAPYKDLYPYYEYDYWGHGTQVTVSS | low polyreactivity
QVQLVESGGGLVQAGGSLRLSCAASGRTFTQNAMGWYRQATGKERELVASISSSGSTYADSVKGRFTISRDNAKNTVYLQMISLKPEDTAVNYCNAVGFQANDYNYWGQGTQVTVSS | low polyreactivity
QVQLVESGGGLVQAGGSLRLSCAASGYIFDDNAMGWYRQAPGKERELVATNYADSVKGRFTISRDNAKNTVYLQMNSLKPEDTAVFYCAKAGYRSEFEYWGQGTQVTVSS | low polyreactivity
QVQLVESGGGLVQAGGSLRLSCAASGRIFGDYGMGWYRQAPGKERELVAAISSGGSTNYADSVKGRFTISRDNAKNTVYLQMNSLKPEDTAVYYCAKATYPHEYDYWGQGTQVTVSS | low polyreactivity

Sequence | polyreactivity (PSR sort gate)
QVQLVESGGGLVQAGGSLRLSFAASGSTFPSYAMGWYRQAPGKERELVAAITKGGSTTYADSVKGRFTISRDNAKNTVYLQMNSLKPEDTAVYYCAARYYYYYYYIRRDYWGQGTQVTVSS | low polyreactivity
QVQLVESGGGLVQAGGSLRLSCAASGRIFPSYAMGWYRQAPGKERELVAAISYSGASTYYADSVKGRFTISRDYAKNTVSLQMNSLKPEDTAVYYCNQLVEEDYWGQGTQVTVSS | low polyreactivity
QVQLEESGGGLVQAGGSLRLSSAASGIIFGTNAMGWYRQAPGKERELVAGITSSGDSTYYADSVKGRFTISRDNPKNTVYLQMNSLKPEDTAVYYCARDIRTREFDSWGQGTQVTVSS | low polyreactivity
QVQLVESGGGLVQAGGSLRLSCAASGSTIRGYARGWYRQAPGKEREFVAAITVNGGNTYYAESVKGRFTLSRDNAKNTVYLQMNSLKPEDTEGYYCNVPVTVVKASITEHYYWGQGTQVTVSS | low polyreactivity
QVQLVESGGGLVQAGGSLRLSCAASGRIFIIYAMGWYRQAPGTEREFVAAITSSGGSTYYADSVKGRFTISRDNAKNTVYLQMNSLKPEDTAVYYSAADSTEYTGDASYIGYDYWGQGTQVTVSS | high polyreactivity
QVQLVESGGGLVQAGGSLRLSCAASGFIFVYYGMVWYRQAPGKERELVAAISRSGGSTYYADSVKGRFTISRDNAKNTVYLQMNSLKPEDTAVYYCNVVRWYYHPPLTGSRFDYWGHGTQVTVSS | high polyreactivity
QVQLVESGGGLVQAGGSLRLSCAASGNIFSTYAMGWYRQAPGKERELVASISENGGSTYYADSVKGRFTISRDNAKNTVYLQMNSLKPEDTAVYYCNADAYVYFDDGDYWGQGTQVTVSS | low polyreactivity
QVQLVESGGGLVQAGGSLRLSCAASGFTFIQYAMGWYRQAPGKERELVAAITRSGGRTYYADSVKGRFTISRDNAKNTVFLQMNSLKPEDTAVYYCNADRTRGYQRYDYWGQGTQETVSS | high polyreactivity
QVQLVESAGGLVQAGGSLRLICAASGRTTPIYALGWYRQAPGKERELVASITRGTRTNYADSVKGRFTISRDNAKTTVYLQMNSLKPEDTAVYYCAAVSYSYSLNPYDYWGQGTQVTVSS | low polyreactivity
QVQLVESGGGLVQAGGSLRLSCAASGFTFRSYAMGCYRQAPEKEMELVAAISRRGGSTYYADSVKGRFTISRDNAKNTVYLQMNSLKPEDTAVYFCAKDGTGAGTYDYWGQGTQVTVSS | low polyreactivity
QVQLVESGGGLVQAGGSLRLSCAASGNTFKYYAMGWYRQAPGKERVLVATISRTAGSTYYADSVKGRFTISRDNAKNTVYLQMNSLKPEDTAVYYCNKDRGHPFKYDYWGQGTQVTVSS | low polyreactivity
QVQHVESGGGLVQAGGSLRLSCAASGRTFTFNAMGWYRPAPGKERELVARIDWRGITYADSVKGRFTISRDNAKNTVYLQMNSLKPEDTAVYDCAAVWLHISYYGKYDYWGQGTQVTVSS | low polyreactivity
QVQLVESGGGLVQAGGSLRLSCAASGSIFRTNAMGWYRQAPGKEREYVATISSDSGNTYYADSVKGRFTISRDNAKNTVYLQMNSLKPEDTAVYYCARRKVRYWSYRAANYYWGQGTQVTVSS | low polyreactivity
QVQLVESGVGIVQAGGSLRLSCAASGITFWRYAMRWYRQARGKERELVAAINSGGGTKYADSVQGRFTISRDNAKNTDYLQMNSLKPEDTAVYYCAAVSRYGWYDYCGQGTQVTVSS | high polyreactivity
QVQLVESGGGLVQAGGSLRLSCAASGGIFRYYAMGWYRQAPGKERELVAAISKSGGRTYYADSVKGRFTISRDNAKNTVYLQMNSLKPEDTAVYYCNAEYTWHSGYDYWGQGTQVTVSS | low polyreactivity
QVQLVESGGGLVQAGGSLRLSCAASGRTFQTNAMGWYRQAPGKERELVAAISSTGGSTYYADSVKGRFTISRDNAKNTVYLQMNRLKPEDTAVYYCNAGRTYRYDYWGQGTQVTVSS | high polyreactivity
